Experimental data: US20190153406A1 (PEKING UNIVERSITY, published 2019)
Where a chain is given by its changes, count along the chain named. Names may count otherwise.

B1: mouse wild-type MG53 (enzyme)
chain: MSAAPGLLRQELSCPLCLQLFDAPVTAECGHSFCRACLIRVAGEPAADGTVACPCCQAPTRPQALSTNLQLSRLVEGLAQVPQGHCEEHLDPLSIYCEQDRTLVCGVCASLGSHRGHRLLPAAEAQARLKTQLPQQKMQLQEACMRKEKTVAVLEHQLVEVEETVRQFRGAVGEQLGKMRMFLAALESSLDREAERVRGDAGVALRRELSSLNSYLEQLRQMEKVLEEVADKPQTEFLMKFCLVTSRLQKILSESPPPARLDIQLPVISDDFKFQVWKKMFRALMPALEELTFDPSSAHPSLVVSSSGRRVECSDQKAPPAGEDTRQFDKAVAVVAQQLLSQGEHYWEVEVGDKPRWALGVMAADASRRGRLHAVPSQGLWLLGLRDGKILEAHVEAKEPRALRTPERPPARIGLYLSFADGVLAFYDASNPDVLTPIFSFHERLPGPVYPIFDVCWHDKGKNAQPLLLVGPEQEQA
notes: Expressed from a plasmid in HEK293T cells for co-IP and degradation assays; purified protein in the mobile phase for SPR; also called TRIM72; Mitsugumin 53
B2: mouse MG53 S255A mutant (enzyme)
chain: B1 chain with S255A

How the values were obtained:
[1] = biological target: T1, rat insulin receptor substrate IRS1 (rat, UniProt P35570 1-1235, limits assumed); test: SPR, purified IRS1 immobilized, purified MG53 in mobile phase
T1 construct: The legend says Rat IRS1; also called Rat IRS1
T1 sequence (looked up): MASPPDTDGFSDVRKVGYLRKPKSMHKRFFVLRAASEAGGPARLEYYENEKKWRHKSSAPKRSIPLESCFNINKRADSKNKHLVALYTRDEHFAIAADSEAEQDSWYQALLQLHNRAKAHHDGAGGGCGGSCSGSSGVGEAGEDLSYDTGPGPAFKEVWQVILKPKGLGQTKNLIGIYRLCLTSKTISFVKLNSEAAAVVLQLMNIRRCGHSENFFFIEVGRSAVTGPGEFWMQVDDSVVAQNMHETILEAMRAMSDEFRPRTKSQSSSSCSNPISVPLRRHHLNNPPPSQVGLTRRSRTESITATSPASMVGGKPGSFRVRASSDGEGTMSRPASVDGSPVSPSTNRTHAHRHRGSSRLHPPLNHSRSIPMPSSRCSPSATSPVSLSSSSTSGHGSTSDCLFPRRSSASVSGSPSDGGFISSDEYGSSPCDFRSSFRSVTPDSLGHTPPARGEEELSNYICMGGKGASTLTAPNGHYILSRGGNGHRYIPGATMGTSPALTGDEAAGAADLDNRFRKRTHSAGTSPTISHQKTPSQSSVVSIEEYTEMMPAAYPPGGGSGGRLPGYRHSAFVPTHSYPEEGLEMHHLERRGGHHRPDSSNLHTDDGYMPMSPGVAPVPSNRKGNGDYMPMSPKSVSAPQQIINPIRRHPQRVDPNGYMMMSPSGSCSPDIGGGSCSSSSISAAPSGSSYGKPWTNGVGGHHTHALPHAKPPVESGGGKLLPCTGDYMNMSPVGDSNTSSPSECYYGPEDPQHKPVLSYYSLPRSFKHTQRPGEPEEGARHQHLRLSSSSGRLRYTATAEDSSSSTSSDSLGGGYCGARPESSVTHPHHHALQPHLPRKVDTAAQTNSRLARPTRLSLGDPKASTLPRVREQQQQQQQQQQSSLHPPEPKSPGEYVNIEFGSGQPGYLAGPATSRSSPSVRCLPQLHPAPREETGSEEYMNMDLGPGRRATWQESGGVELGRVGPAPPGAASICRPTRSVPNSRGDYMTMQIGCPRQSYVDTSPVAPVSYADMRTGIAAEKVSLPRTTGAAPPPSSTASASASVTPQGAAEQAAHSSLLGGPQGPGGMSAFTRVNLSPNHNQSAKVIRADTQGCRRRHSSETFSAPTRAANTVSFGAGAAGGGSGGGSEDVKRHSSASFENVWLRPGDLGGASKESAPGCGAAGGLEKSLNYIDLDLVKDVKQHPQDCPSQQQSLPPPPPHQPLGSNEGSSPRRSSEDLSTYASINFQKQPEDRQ

[2] = biological target: T1, rat insulin receptor substrate IRS1; test: SPR, Rat IRS1 immobilized (500 RU), MG53-S255A in the mobile phase [lower panel]

Binder	Kd [1] [nM]	binding result [2]
B1	64.2	–
B2	–	no binding (tested: 1000 nM)
